Article PMC8511391, “Optimization of Pichia pastoris Expression System for High-Level Production of Margatoxin” (Frontiers in Pharmacology, 2021)

Target: T1, hKv1.2 (Homo sapiens, UniProt P16389)
T1 construct: GFP (from vector pCMV6-GFP); host or cells: CHO cells, transient transfection with Lipofectamine 2000
Assay: Patch-clamp block of hKv1.2 current (dose-response / equilibrium block) in transfected CHO cells
Format: cell-based
Conditions: 14 nM charybdotoxin, hKv1.2, data not shown

T1 sequence (P16389 whole entry): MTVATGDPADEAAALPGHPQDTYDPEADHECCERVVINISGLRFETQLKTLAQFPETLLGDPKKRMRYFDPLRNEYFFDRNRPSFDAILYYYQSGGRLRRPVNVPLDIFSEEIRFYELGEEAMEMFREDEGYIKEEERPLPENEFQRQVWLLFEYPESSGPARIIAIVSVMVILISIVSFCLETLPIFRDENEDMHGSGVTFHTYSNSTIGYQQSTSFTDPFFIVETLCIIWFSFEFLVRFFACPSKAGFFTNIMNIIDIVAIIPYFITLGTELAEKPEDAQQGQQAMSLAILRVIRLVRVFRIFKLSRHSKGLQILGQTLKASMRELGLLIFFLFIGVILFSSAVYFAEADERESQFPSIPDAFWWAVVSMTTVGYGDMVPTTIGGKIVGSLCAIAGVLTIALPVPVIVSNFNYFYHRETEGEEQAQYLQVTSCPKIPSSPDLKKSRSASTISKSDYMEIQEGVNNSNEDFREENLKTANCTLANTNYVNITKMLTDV

## charybdotoxin [reference compound]
  reduction in peak current, positive control: Around 50%
